Data taken from paper PMC2891831, “Insight into the Mechanisms of Adenovirus Capsid Disassembly from Studies of Defensin Neutralization” (PLoS Pathogens, 2010).

System: Ad5.eGFP
Assay: Ad5.eGFP infection, eGFP-positive cells by flow cytometry
Type: cell-based, human adenovirus
Conditions: 15 µM defensin, percent eGFP positive cells vs. no defensin, at least three independent experiments
Description: To gain further insight into the defensin-HAdV interaction, we assessed the requirement for two conserved structural elements on the anti-AdV activity of HD5. All defensins have three disulfide bonds (Figure 3A). […] The antibacterial properties of defensins, which are dependent upon protein-lipid interactions, are not uniformly conformation dependent [27]–[29]. […] In contrast, defensin-related chemokine activity, which relies on protein-protein interactions, is dependent on defensin conformation. We hypothesized that the defensin-capsid interaction for sensitive serotypes would likely be dependent upon defensin conformation, as this would be more typical for protein-protein interactions. […]
Figure 3 HD5 antiviral activity is structure dependent. […] C) Binding of Alexa Fluor 488-labeled HAdV-5 to cells was assessed after incubation with or without 20 µM HD5 or HD5-Abu and in competition with 100 nM 5FK or 16 FK. Data are the mean fold increase in geometric mean fluorescence compared to cells alone and are of at least 10,000 cells from each of three independent experiments ± SD.
To test the activity of HD5 derivates, Ad5.eGFP was incubated with 15 µM of HD5, HD5-Abu, or HD5-E14Q. Infectivity was assessed by enumerating eGFP-positive cells by flow cytometry as described.

B1: HD5-E14Q: HD5 containing a substitution of glutamine for glutamic acid 14, to disrupt the conserved salt bridge (peptide, UniProt Q01523 20-94, looked up, variant E14Q)
Defensin alpha 5: ESLQERADEATTQKQSGEDNQDLAISFAGNGLSALRTSGSQARATCYCRTGRCATRQSLSGVCEISGRLYRLCCR
modifications: Defensin-5
notes: HD5 containing a substitution of glutamine for glutamic acid 14, to disrupt the conserved salt bridge
antiviral activity against Ad5.eGFP: no effect on antiviral activity
